Data taken from the supplement of paper PMC7877785.
± gives the uncertainty stated by the source.

Assay: self-splicing fitness, log relative to wild type (ln ratio); higher = more splicing; Tetrahymena group I intron in knt gene, E. coli kanamycin selection, DiMSum; sequences stand for … in CUCUCU…GGAGGGAAAAGUUAUCAGGCAUGCACCUGGUAGCUAGUCUUUAAACCAAUAGAUUGCAUCGGUUUAAAAGGCAAGACCGUCAAAUUGCGGGAAAGGGGUCAACAGCCGUUCAGUACCAAGUCUCAGGGGAAACUUUGAGAUGGCCUUGCAAAGGGUAUGGUAAUAAGCUGACGGACAUGGUCCUAACCACGCAGCCAAGUCCUAAGUCAACAGAUCUUCUGUUGAUAUGGAUGCAGUUCACAGACUAAAUGUCGGUCGGGGAAGAUGUAUUCUUCUCAUAAGAUAUAGUCGGACCUCUCCUUAAUGGGAGCUAGCGGAUGAAGUGAUGCAACACUGGAGCCGCUGGGAACUAAUUUGUAUGCGAAAGUAUAUUGAUUAGUUUUGGAGUACUCGUGGUCG
How it was run: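 A randomised library covering all eight P1ex-region intron nucleotides was built with the intron in the knt kanamycin-resistance gene on pET-22b(+) and held in E. coli BL21(DE3). Cells were grown overnight at 37°C or 30°C on LB agar, with or without 25 μg/mL kanamycin, plus 100 μg/mL carbenicillin, 50 μM IPTG and 0.2% rhamnose, and pooled colonies were amplicon-sequenced on an Illumina HiSeq 2500. DiMSum fitness is the error-weighted combination of wild-type-normalised replicate fold changes, kanamycin versus none.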

Row | Sequence | self-splicing fitness (ln) (30 °C) | self-splicing fitness (ln) (37 °C)
1 | GCUAAGCAAUAUUACGAACC | -0.414 ± 0.15 | 1.05 ± 0.23
2 | GCUAAGCAAUAUUACGACGA | -0.978 ± 0.088 | -0.529 ± 0.1
3 | GCUAAGCAAUAUUACGAGAU | -2.3 ± 0.12 | -1.51 ± 0.14
4 | GCUAAGCAAUAUUACGAGCG | -1.7 ± 0.11 | -0.246 ± 0.12
5 | GCUAAGCAAUAUUACGAUAU | -0.896 ± 0.066 | -0.164 ± 0.094
6 | GCUAAGCAAUAUUACGCGAU | -2.05 ± 0.45 | -0.565 ± 0.25
7 | GCUAAGCAAUAUUACGCUCA | -1 ± 0.11 | -1.52 ± 0.14
8 | GCUAAGCAAUAUUACGGACG | -0.941 ± 0.058 | -0.51 ± 0.074
9 | GCUAAGCAAUAUUACGGAUC | -0.406 ± 0.11 | -0.265 ± 0.17
10 | GCUAAGCAAUAUUACGGAUG | -1.52 ± 0.081 | -0.677 ± 0.12
11 | GCUAAGCAAUAUUACGGCGG | -3.78 ± 0.12 | -2.7 ± 0.15
12 | GCUAAGCAAUAUUACGGCUC | -0.551 ± 0.092 | -0.942 ± 0.098
13 | GCUAAGCAAUAUUACGGGCU | – | -2.23 ± 0.31
14 | GCUAAGCAAUAUUACGUAAC | -1.39 ± 0.11 | -0.735 ± 0.14
15 | GCUCAGCAAUAUUACGACCU | -0.614 ± 0.2 | -0.401 ± 0.21
16 | GCUCAGCAAUAUUACGACGA | -1.94 ± 0.17 | -1.5 ± 0.18
17 | GCUCAGCAAUAUUACGAGAC | -3.42 ± 0.32 | -0.338 ± 0.2
18 | GCUCAGCAAUAUUACGAGAG | -1.03 ± 0.14 | -0.875 ± 0.14
19 | GCUCAGCAAUAUUACGAGCU | -1.77 ± 0.2 | -2.27 ± 0.35
20 | GCUCAGCAAUAUUACGAGGG | -2.38 ± 0.16 | -2.57 ± 0.25
21 | GCUCAGCAAUAUUACGAGUU | -1.85 ± 0.079 | -0.858 ± 0.09
22 | GCUCAGCAAUAUUACGAUGG | -1.05 ± 0.11 | 0.368 ± 0.13
23 | GCUCAGCAAUAUUACGCACG | -3.19 ± 0.31 | -1.02 ± 0.24
24 | GCUCAGCAAUAUUACGCGAC | -3.49 ± 0.3 | 0.167 ± 0.16
25 | GCUCAGCAAUAUUACGCGCA | -1.77 ± 0.13 | -0.106 ± 0.13

Row | Sequence | self-splicing fitness (ln) (30 °C) | self-splicing fitness (ln) (37 °C)
26 | GCUCAGCAAUAUUACGCGCC | -2.16 ± 0.14 | -1.92 ± 0.17
27 | GCUCAGCAAUAUUACGCUAC | -3.26 ± 0.17 | -2.69 ± 0.2
28 | GCUCAGCAAUAUUACGCUGA | -2.82 ± 0.35 | –
29 | GCUCAGCAAUAUUACGGAAG | -2.23 ± 0.09 | -0.736 ± 0.11
30 | GCUCAGCAAUAUUACGGCGU | -0.15 ± 0.062 | 0.324 ± 0.082
31 | GCUCAGCAAUAUUACGGGCA | -1.76 ± 0.17 | -0.69 ± 0.17
32 | GCUCAGCAAUAUUACGGGCU | -4.72 ± 0.38 | -2.63 ± 0.21
33 | GCUCAGCAAUAUUACGGGUA | -0.401 ± 0.077 | -0.454 ± 0.078
34 | GCUCAGCAAUAUUACGGUUC | -0.806 ± 0.065 | 0.0632 ± 0.071
35 | GCUCAGCAAUAUUACGGUUU | -0.112 ± 0.059 | 0.228 ± 0.073
36 | GCUCAGCAAUAUUACGUAUA | -1.73 ± 0.096 | -0.338 ± 0.085
37 | GCUCAGCAAUAUUACGUUAG | -2.79 ± 0.13 | -0.765 ± 0.12
38 | GCUCAGCAAUAUUACGUUUC | -0.455 ± 0.065 | -0.0579 ± 0.091
39 | GCUGAGCAAUAUUACGAAAU | -3.27 ± 0.2 | -2.43 ± 0.22
40 | GCUGAGCAAUAUUACGACGC | – | -1.7 ± 0.42
41 | GCUGAGCAAUAUUACGAGGA | -2.31 ± 0.16 | -2.48 ± 0.18
42 | GCUGAGCAAUAUUACGAGUC | – | -2.04 ± 0.25
43 | GCUGAGCAAUAUUACGAUAA | -3.51 ± 0.4 | -3.27 ± 0.35
44 | GCUGAGCAAUAUUACGCAUA | -3.37 ± 0.3 | -1.82 ± 0.17
45 | GCUGAGCAAUAUUACGCCAA | – | -3.52 ± 0.46
46 | GCUGAGCAAUAUUACGCGGU | -3.6 ± 0.21 | -2.02 ± 0.3
47 | GCUGAGCAAUAUUACGCUCU | -1.12 ± 0.17 | -0.769 ± 0.2
48 | GCUGAGCAAUAUUACGCUGC | -2.56 ± 0.32 | -1.92 ± 0.3
49 | GCUGAGCAAUAUUACGGCCA | -2.02 ± 0.28 | -1.9 ± 0.38
50 | GCUGAGCAAUAUUACGGGCU | -1.89 ± 0.31 | –

Row | Sequence | self-splicing fitness (ln) (30 °C) | self-splicing fitness (ln) (37 °C)
51 | GCUGAGCAAUAUUACGGGGA | -2.81 ± 0.3 | -2.03 ± 0.32
52 | GCUGAGCAAUAUUACGGGGG | -2.59 ± 0.2 | -1.8 ± 0.21
53 | GCUGAGCAAUAUUACGGUAG | -3.27 ± 0.24 | -3.11 ± 0.3
54 | GCUGAGCAAUAUUACGUAAU | -3.77 ± 0.24 | -1.29 ± 0.14
55 | GCUGAGCAAUAUUACGUCGA | -1.34 ± 0.24 | -1.72 ± 0.24
56 | GCUGAGCAAUAUUACGUCUC | – | -1.16 ± 0.35
57 | GCUGAGCAAUAUUACGUUGU | -3.56 ± 0.14 | -2.83 ± 0.17
58 | GCUUAGCAAUAUUACGAGUG | -0.38 ± 0.096 | -0.545 ± 0.11
59 | GCUUAGCAAUAUUACGAUGA | -0.547 ± 0.12 | -0.556 ± 0.12
60 | GCUUAGCAAUAUUACGCAGU | -2.45 ± 0.25 | -3.16 ± 0.47
61 | GCUUAGCAAUAUUACGCCCA | -1.96 ± 0.24 | -0.0842 ± 0.23
62 | GCUUAGCAAUAUUACGCCUG | -2.35 ± 0.14 | -1.02 ± 0.13
63 | GCUUAGCAAUAUUACGCGAA | -2.55 ± 0.11 | -1.98 ± 0.11
64 | GCUUAGCAAUAUUACGCGUA | -1.39 ± 0.16 | -1.71 ± 0.17
65 | GCUUAGCAAUAUUACGCUGA | -2.77 ± 0.17 | -3.37 ± 0.26
66 | GCUUAGCAAUAUUACGGCAG | -4.61 ± 0.46 | -2.63 ± 0.34
67 | GCUUAGCAAUAUUACGGCAU | -1.79 ± 0.17 | -1.61 ± 0.2
68 | GCUUAGCAAUAUUACGGCGA | -1.75 ± 0.14 | -1.33 ± 0.16
69 | GCUUAGCAAUAUUACGGGAU | -1.56 ± 0.074 | -0.453 ± 0.09
70 | GCUUAGCAAUAUUACGGGGG | -1.53 ± 0.11 | -1.54 ± 0.15
71 | GCUUAGCAAUAUUACGGUAA | -2.18 ± 0.14 | -1.54 ± 0.13
72 | GCUUAGCAAUAUUACGUCAC | – | -1.53 ± 0.5
73 | GCUUAGCAAUAUUACGUCGU | -0.74 ± 0.097 | 0.231 ± 0.14
74 | GCUUAGCAAUAUUACGUGUA | -1.03 ± 0.077 | -0.175 ± 0.083
75 | GGAAAGCAAUAUUACGAAGG | -3.22 ± 0.23 | -2.5 ± 0.38

Row | Sequence | self-splicing fitness (ln) (30 °C) | self-splicing fitness (ln) (37 °C)
76 | GGAAAGCAAUAUUACGAGAU | -2.44 ± 0.17 | -2.17 ± 0.29
77 | GGAAAGCAAUAUUACGAGUC | -0.868 ± 0.11 | -1.48 ± 0.12
78 | GGAAAGCAAUAUUACGAUCA | 0.0514 ± 0.081 | -0.282 ± 0.099
79 | GGAAAGCAAUAUUACGCAGU | -2.78 ± 0.13 | -1.47 ± 0.12
80 | GGAAAGCAAUAUUACGCAUU | -2.5 ± 0.12 | -2.55 ± 0.25
81 | GGAAAGCAAUAUUACGCCAU | -1.76 ± 0.18 | -0.946 ± 0.31
82 | GGAAAGCAAUAUUACGCCUA | -1.28 ± 0.18 | -0.669 ± 0.23
83 | GGAAAGCAAUAUUACGCGAU | -2.98 ± 0.18 | -1.02 ± 0.17
84 | GGAAAGCAAUAUUACGCGGA | -1.96 ± 0.13 | -0.353 ± 0.1
85 | GGAAAGCAAUAUUACGCGGU | -3.32 ± 0.13 | -3.21 ± 0.2
86 | GGAAAGCAAUAUUACGCUCA | -0.428 ± 0.12 | -0.303 ± 0.17
87 | GGAAAGCAAUAUUACGCUUU | – | -2.56 ± 0.3
88 | GGAAAGCAAUAUUACGGAAU | -2.55 ± 0.16 | -1.1 ± 0.15
89 | GGAAAGCAAUAUUACGGACG | -0.879 ± 0.087 | 0.281 ± 0.1
90 | GGAAAGCAAUAUUACGGAGC | -1.43 ± 0.17 | -1.49 ± 0.2
91 | GGAAAGCAAUAUUACGGCGC | -0.392 ± 0.16 | 0.131 ± 0.21
92 | GGAAAGCAAUAUUACGGCUA | -0.34 ± 0.2 | -0.931 ± 0.18
93 | GGAAAGCAAUAUUACGGGCG | -0.494 ± 0.079 | -0.213 ± 0.11
94 | GGAAAGCAAUAUUACGGUAU | -1.82 ± 0.11 | -1.31 ± 0.13
95 | GGAAAGCAAUAUUACGGUUA | -1.33 ± 0.11 | -0.365 ± 0.099
96 | GGAAAGCAAUAUUACGUACU | -1.25 ± 0.082 | -0.834 ± 0.13
97 | GGAAAGCAAUAUUACGUCAG | -3.08 ± 0.38 | -2.25 ± 0.27
98 | GGAAAGCAAUAUUACGUCUC | -3.22 ± 0.41 | –
